From publication PMC7116205 come the findings set out here.

Chain of VAMP2 (1-116) (mouse) (P63044 other isoform, or with tags, fused parts or gaps): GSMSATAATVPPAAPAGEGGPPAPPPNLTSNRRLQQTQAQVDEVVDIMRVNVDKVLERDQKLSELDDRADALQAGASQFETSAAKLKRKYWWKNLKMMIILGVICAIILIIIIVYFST
Chain of syntaxin 1A 1-288 (rat) (P32851 whole entry T251I): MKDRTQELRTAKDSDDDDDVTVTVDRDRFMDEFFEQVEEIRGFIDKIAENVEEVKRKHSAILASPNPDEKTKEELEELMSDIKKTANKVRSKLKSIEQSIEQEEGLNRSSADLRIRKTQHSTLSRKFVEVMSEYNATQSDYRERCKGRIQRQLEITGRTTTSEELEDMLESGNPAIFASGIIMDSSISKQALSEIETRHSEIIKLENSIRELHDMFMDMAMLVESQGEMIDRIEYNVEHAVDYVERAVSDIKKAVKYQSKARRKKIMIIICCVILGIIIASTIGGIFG

CpxII A40BPA (natural protein) came in with a share of the cross-links that stay SDS sensitive (not in SDS-resistant cis v/t-SNARE complexes) after Ca2+ with VAMP2 (1-116) (mouse) of 74%.

Consider CpxII H52BPA (natural protein), for which the share of the cross-links that are SDS sensitive (not in SDS-resistant cis v/t-SNARE complexes) after Ca2+, unboiled samples in the test with syntaxin 1A 1-288 (rat) turned out to be 14%.
